# T1: ACRO-CD70-his (Biotinylated Human CD27 Ligand ,His,Avitag; ACRObiosystem CDL-H82Q9) (human, UniProt P32970 39-193, limits assumed, biotinylated (Avitag))
# T1 construct: Bought unrelated antigen; not shown: His tag and Avitag
# T1 sequence (looked up): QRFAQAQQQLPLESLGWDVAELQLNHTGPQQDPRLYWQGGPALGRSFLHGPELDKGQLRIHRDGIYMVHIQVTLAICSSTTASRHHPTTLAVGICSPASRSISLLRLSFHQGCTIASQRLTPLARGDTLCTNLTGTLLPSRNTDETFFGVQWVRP
# T2: KACTUS-CD19-Fc (Recombinant biotinylated Human CD19 Protein, KACTUS CD2-HE121) (human, UniProt P15391 20-291, biotinylated (site not stated))
# T2 construct: Bought unrelated antigen; not shown: Fc
# T2 sequence (looked up): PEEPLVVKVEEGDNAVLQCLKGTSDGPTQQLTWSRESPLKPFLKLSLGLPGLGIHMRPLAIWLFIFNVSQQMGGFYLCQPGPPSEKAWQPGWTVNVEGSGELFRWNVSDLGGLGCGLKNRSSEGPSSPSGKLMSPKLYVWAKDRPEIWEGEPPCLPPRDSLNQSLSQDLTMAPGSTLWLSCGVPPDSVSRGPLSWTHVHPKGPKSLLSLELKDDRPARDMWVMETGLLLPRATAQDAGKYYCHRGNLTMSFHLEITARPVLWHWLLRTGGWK
# T3: BAFF-R on the surface of BAFF-R-positive cells (K562-BAFF-R, NALM6, RS4, MEC1, JEKO1) (human, UniProt Q96RJ3 1-184)
# T3 sequence: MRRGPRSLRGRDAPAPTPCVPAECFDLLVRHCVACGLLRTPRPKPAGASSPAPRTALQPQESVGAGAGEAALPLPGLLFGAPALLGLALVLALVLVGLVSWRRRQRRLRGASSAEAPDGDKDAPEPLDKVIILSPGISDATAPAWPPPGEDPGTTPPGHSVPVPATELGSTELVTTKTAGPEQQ
# T4: His-tagged human BAFF-R antigen (BAR-H52H3, Acro) (human, UniProt Q96RJ3 7-71, limits assumed)
# T4 construct: Bought protein used in BLI; not shown: His tag
# T4 sequence: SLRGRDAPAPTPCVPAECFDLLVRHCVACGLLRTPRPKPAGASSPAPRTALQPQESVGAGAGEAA
# B1: Clone 5 (monoclonal phage antibody) (VHH)
# VHH: EVQLVESGGGVVQPGRSLRLTCAASGFTFSTSGMYWIRQAPGKGLEWVSYISSSSSTIYYADSVKGRFTISRDNSKNTLYLQMNSLRAEDTAVYYCVTQSCGAGKCYPGVWGQGTTVTVSS
# notes: also called 05; 05VH
# B2: 0205-1, VH-Fab-Fc 1+1 α-BAFF-R VH×α-CD3 Fab bispecific antibody (bispecific antibody, human IgG4 S228P, lambda, F234A L235A)
# heavy: EVQLVESGGGLVQPKGSLKLSCAASGFTFNTYAMNWVRQAPGKGLEWVARIRSKYNNYATYYADSVKDRFTISRDDSQSILYLQMNNLKTEDTAMYYCVRHGNFGNSYVSWFAYWGQGTLVTVSSASTKGPSVFPLAPCSRSTSESTAALGCLVKDYFPEPVTVSWNSGALTSGVHTFPAVLQSSGLYSLSSVVTVPSSSLGTKTYTCNVDHKPSNTKVDKRVESKYGPPCPPCPAPEAAGGPSVFLFPPKPKDTLMISRTPEVTCVVVDVSQEDPEVQFNWYVDGVEVHNAKTKPREEQFNSTYRVVSVLTVLHQDWLNGKEYKCKVSNKGLPSSIEKTISKAKGQPREPQVYTLPPCQEEMTKNQVSLWCLVKGFYPSDIAVEWESNGQPENNYKTTPPVLDSDGSFFLYSRLTVDKSRWQEGNVFSCSVMHEALHNHYTQKSLSLSLGK
# light: QAVVTQESALTTSPGETVTLTCRSSTGAVTTSNYANWVQEKPDHLFTGLIGGTNKRAPGVPARFSGSLIGDKAALTITGAQTEDEAIYFCALWYSNLWVFGGGTKLTVLGQPKAAPSVTLFPPSSEELQANKATLVCLISDFYPGAVTVAWKADSSPVKAGVETTTPSKQSNNKYAASSYLSLTPEQWKSHKSYSCQVTHEGSTVEKTVAPTECS
# chain: EVQLVESGGGVVQPGRSLRLTCAASGFTFSTSGMYWIRQAPGKGLEWVSYISSSSSTIYYADSVKGRFTISRDNSKNTLYLQMNSLRAEDTAVYYCVTQSCGAGKCYPGVWGQGTTVTVSSESKYGPPCPPCPAPEAAGGPSVFLFPPKPKDTLMISRTPEVTCVVVDVSQEDPEVQFNWYVDGVEVHNAKTKPREEQFNSTYRVVSVLTVLHQDWLNGKEYKCKVSNKGLPSSIEKTISKAKGQPREPQVCTLPPSQEEMTKNQVSLSCAVKGFYPSDIAVEWESNGQPENNYKTTPPVLDSDGSFFLVSRLTVDKSRWQEGNVFSCSVMHEALHNHYTQKSLSLSLGK
# notes: IgG4 Fc with S228P/F234A/L235A, knobs on the CD3 side, holes on the BAFF-R side
# B3: 0205-3, VH2-Fab2-Fc 2+2 α-BAFF-R VH×α-CD3 Fab bispecific antibody (bispecific antibody)
# heavy: not shown
# light: B2 light
# notes: To be checked
# B4: 0205-2, VH2-Fab-Fc 2+1 α-BAFF-R VH×α-CD3 Fab bispecific antibody (bispecific antibody)
# heavy 1: EVQLVESGGGVVQPGRSLRLTCAASGFTFSTSGMYWIRQAPGKGLEWVSYISSSSSTIYYADSVKGRFTISRDNSKNTLYLQMNSLRAEDTAVYYCVTQSCGAGKCYPGVWGQGTTVTVSSGGGGSGGGGSEVQLVESGGGLVQPKGSLKLSCAASGFTFNTYAMNWVRQAPGKGLEWVARIRSKYNNYATYYADSVKDRFTISRDDSQSILYLQMNNLKTEDTAMYYCVRHGNFGNSYVSWFAYWGQGTLVTVSSASTKGPSVFPLAPCSRSTSESTAALGCLVKDYFPEPVTVSWNSGALTSGVHTFPAVLQSSGLYSLSSVVTVPSSSLGTKTYTCNVDHKPSNTKVDKRVESKYGPPCPPCPAPEAAGGPSVFLFPPKPKDTLMISRTPEVTCVVVDVSQEDPEVQFNWYVDGVEVHNAKTKPREEQFNSTYRVVSVLTVLHQDWLNGKEYKCKVSNKGLPSSIEKTISKAKGQPREPQVYTLPPCQEEMTKNQVSLWCLVKGFYPSDIAVEWESNGQPENNYKTTPPVLDSDGSFFLYSRLTVDKSRWQEGNVFSCSVMHEALHNHYTQKSLSLSLGK
# light: B2 light
# heavy 2: B2 chain
# notes: To be checked
# B5: SP34 monoclonal antibody (anti-CD3) (antibody, human IgG4 S228P, lambda, V domains shown)
# VH: EVQLVESGGGLVQPKGSLKLSCAASGFTFNTYAMNWVRQAPGKGLEWVARIRSKYNNYATYYADSVKDRFTISRDDSQSILYLQMNNLKTEDTAMYYCVRHGNFGNSYVSWFAYWGQGTLVTVSS
# VL: QAVVTQESALTTSPGETVTLTCRSSTGAVTTSNYANWVQEKPDHLFTGLIGGTNKRAPGVPARFSGSLIGDKAALTITGAQTEDEAIYFCALWYSNLWVFGGGTKLTVLG
# notes: also called α-CD3 monoclonal antibody
# B6: Clone 1 (monoclonal phage antibody) (scFv, V domains shown)
# VH: EVQLVESGAEVKKPGASVKVSCKASGYTFTSYGISWVRQAPGQGLEWMGWISAYNGNTNYAQKLQGRVTMTTDTSTSTAYMELRSLRSDDTAVYYCARNTYYYDSSGYPNDAFDIWGQGTTVTVSS
# VL: DIQMTQSPSSLSASVGDRVTITCRASQKISSYLNWYQQKPGKAPKLLIYAASSLQSGVPSRFSGSGSGADFTLTISSLQPEDFATYYCQQSYSPPTTFGGGTKVDIKR
# notes: also called 01
# Assays:
# [1] = biological target: T5, Streptavidin (Pierce, 21125) (UniProt P22629 37-163, limits assumed); experiment: phage ELISA
# T5 construct: Control antigen of the ELISA; also called SA; control protein SA
# T5 sequence (P22629 37-163 limits assumed): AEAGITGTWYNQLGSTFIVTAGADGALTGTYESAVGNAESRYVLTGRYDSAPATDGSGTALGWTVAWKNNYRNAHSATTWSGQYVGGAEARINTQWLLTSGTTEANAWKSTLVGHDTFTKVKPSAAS
# [2] = biological target: T1, ACRO-CD70-his (Biotinylated Human CD27 …); experiment: phage ELISA
# [3] = biological target: T2, KACTUS-CD19-Fc (Recombinant …); experiment: phage ELISA
# [4] = biological target: T3, BAFF-R on the surface of …; experiment: cell-based or functional assay
# [5] = biological target: T4, His-tagged human BAFF-R antigen …; experiment: BLI (ForteBio Octet), His-tagged antigen on HIS1K sensor, antibody in solution
# [6] = biological target: T3, BAFF-R on the surface of …; experiment: cell-based or functional assay; remark: listed apart in the source
# [7] = biological target: T3, BAFF-R on the surface of …; experiment: cell-based or functional assay; remark: listed apart in the source
# [8] = biological target: T6, His-tagged human CD3E&D (CDD-H52W1, Acro) (human, UniProt P07766 23-126; P04234 22-105); experiment: BLI (ForteBio Octet), His-tagged antigen on HIS1K sensor, antibody in solution
# T6 construct: Bought His-tagged heterodimer; also called CD3E&D heterodimer complex
# T6 sequence (P07766 23-126, chain 1 of 2): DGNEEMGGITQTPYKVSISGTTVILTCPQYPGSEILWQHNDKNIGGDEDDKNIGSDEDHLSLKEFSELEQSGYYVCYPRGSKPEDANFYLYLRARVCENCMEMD
# T6 sequence (P04234 22-105, chain 2 of 2): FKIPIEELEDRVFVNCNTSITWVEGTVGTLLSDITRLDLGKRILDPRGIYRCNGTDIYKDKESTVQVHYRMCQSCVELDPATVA
# [9] = biological target: T7, His-tagged human CD3E&G (CDG-H52W6, Acro) (human, UniProt P07766 23-126; P09693 23-111); experiment: as above
# T7 construct: Bought His-tagged heterodimer; also called CD3E&G heterodimer complex
# T7 sequence (P07766 23-126, chain 1 of 2): as the sequence (P07766 23-126, chain 1 of 2) above
# T7 sequence (P09693 23-111, chain 2 of 2): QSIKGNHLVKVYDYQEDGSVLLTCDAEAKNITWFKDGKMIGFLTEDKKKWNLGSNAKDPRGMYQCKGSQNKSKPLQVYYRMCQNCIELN
# [10] = biological target: T3, BAFF-R on the surface of …; experiment: cell-based or functional assay; remark: listed apart in the source
# [11] = biological target: T3, BAFF-R on the surface of …; experiment: cell-based or functional assay; remark: listed apart in the source
# [12] = biological target: T3, BAFF-R on the surface of …; experiment: cell-based or functional assay; remark: listed apart in the source
Binder,"TDCC reporter gene cell activation by Jeko-1, EC50 [4]","TDCC reporter gene cell activation by Jeko-1, top [4]",Kd [5],koff [5],kon [5],"TDCC reporter gene cell activation by Nalm6, EC50 [6]","TDCC reporter gene cell activation by Nalm6, top [6]","TDCC reporter gene cell activation by Mec-1, EC50 [7]","TDCC reporter gene cell activation by Mec-1, top [7]",Kd [8],koff [8],kon [8],Kd [9],koff [9],kon [9],"killing of Jeko-1 cells by PBMC (Donor 301C), 24hr, top (%) [10]","killing of Jeko-1 cells by PBMC (Donor 301C), 48hr, top (%) [10]","killing of Jeko-1 cells by PBMC (Donor 605C), 24hr, top (%) [11]","killing of Jeko-1 cells by PBMC (Donor 605C), 48hr, top (%) [11]","TDCC reporter gene cell activation by K562-BAFF-R, EC50 [12]",also measured
B1,–,–,–,–,–,–,–,–,–,–,–,–,–,–,–,–,–,–,–,–,binding result [1]: no binding; binding result [2]: no binding; binding result [3]: no binding
B2,11.7 nM,864,1.78 nM,0.00245 s⁻¹,1.38e+06 M⁻¹ s⁻¹,3.2 nM,381,7.31 nM,793,10.7 nM,0.00811 s⁻¹,759000 M⁻¹ s⁻¹,6.68 nM,0.0278 s⁻¹,4.16e+06 M⁻¹ s⁻¹,-22.3%,-12.2%,-12.6%,-12.8%,0.059 nM,"TDCC reporter gene cell activation by K562-BAFF-R, top [12]: 9430"
B3,0.046 nM,1230,1.27 nM,0.00136 s⁻¹,1.07e+06 M⁻¹ s⁻¹,0.021 nM,1870,0.047 nM,1490,10.6 nM,0.0032 s⁻¹,302000 M⁻¹ s⁻¹,9.03 nM,0.00251 s⁻¹,277000 M⁻¹ s⁻¹,28.5%,102%,6.34%,102%,0.041 nM,"killing of Jeko-1 cells by PBMC (Donor 301C), 24hr, EC50(pM) [10]: 18 pM; killing of Jeko-1 cells by PBMC (Donor 301C), 48hr, EC50(pM) [10]: 8.78 pM; killing of Jeko-1 cells by PBMC (Donor 605C), 24hr, EC50(pM) [11]: 2.48 pM; killing of Jeko-1 cells by PBMC (Donor 605C), 48hr, EC50(pM) [11]: 2.81 pM; TDCC reporter gene cell activation by K562-BAFF-R, top [12]: 10900"
B4,0.23 nM,1650,1.12 nM,0.000976 s⁻¹,875000 M⁻¹ s⁻¹,0.068 nM,2430,0.5 nM,2930,10.3 nM,0.00314 s⁻¹,306000 M⁻¹ s⁻¹,11.1 nM,0.00291 s⁻¹,262000 M⁻¹ s⁻¹,57.8%,99.9%,39%,101%,0.054 nM,"killing of Jeko-1 cells by PBMC (Donor 301C), 24hr, EC50(pM) [10]: 52.8 pM; killing of Jeko-1 cells by PBMC (Donor 301C), 48hr, EC50(pM) [10]: 9.74 pM; killing of Jeko-1 cells by PBMC (Donor 605C), 24hr, EC50(pM) [11]: 13.1 pM; killing of Jeko-1 cells by PBMC (Donor 605C), 48hr, EC50(pM) [11]: 3.58 pM; TDCC reporter gene cell activation by K562-BAFF-R, top [12]: 12300"
B5,–,–,–,–,–,–,–,–,–,6.38 nM,0.00301 s⁻¹,473000 M⁻¹ s⁻¹,7.87 nM,0.0029 s⁻¹,369000 M⁻¹ s⁻¹,–,–,–,–,–,–
B6,–,–,–,–,–,–,–,–,–,–,–,–,–,–,–,–,–,–,–,–,binding result [1]: no binding; binding result [2]: no binding; binding result [3]: no binding

# — EP4786496A1 (Nanjing Iaso Biotechnology Co., Ltd., dated 2026)
